Experiment [1] deals with Diglycosylated IgG1-Fc (high mannose glycans at both CH2 domains of the dimer) (human). Kind of experiment: BLI. For orientation: Biolayer interferometry detects binding as a change in optical thickness at a sensor tip.
Experiment [2] addresses Monoglycosylated IgG1-Fc (high mannose glycan at a single CH2 domain of the dimer) (human). Kind of experiment: BLI.

The text below walks through data of paper PMC4512762.

As usually defined, the Kd is the concentration at which binding is half-saturated. A lower Kd goes with tighter binding.

Regarding “Fc γ receptor IIIA, soluble domain of the high affinity V158 polymorph”, the Kd in experiment [1] worked out at 32 nM; in experiment [2], 100 nM.
